Patent EP4435105

What was measured:
[1] = molecular target: T1, human ASGR-1 (on CHO-S cells) (human, UniProt P07306); assay: competition, FACS, GalNAc-PAA
T1 chain: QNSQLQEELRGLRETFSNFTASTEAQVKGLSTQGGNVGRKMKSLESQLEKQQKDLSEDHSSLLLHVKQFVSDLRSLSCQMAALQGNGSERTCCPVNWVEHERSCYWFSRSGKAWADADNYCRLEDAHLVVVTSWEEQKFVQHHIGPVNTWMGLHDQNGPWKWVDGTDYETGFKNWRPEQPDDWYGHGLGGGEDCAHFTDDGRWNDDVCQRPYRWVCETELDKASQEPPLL

[2] = molecular target: T1, human ASGR-1 (on CHO-S cells); assay: competition, FACS, asialofetuin

B1: 22G5 (antibody, V domains shown)
VH: EVQLLESGGGLVQPGGSLRLSCAASGFTFSSYAMNWVRQAPGMGLEWVSVISRSGGYTYYADSVKGRFTISRDNSKNTLYLQMNSLRAEDTAVYYCASRLAVAGSEAFDIWGQGTLVTVSS
VL: DIQMTQSPSSLSASVGDRVTITCRASQNISSYLNWYQQKQGKAPKLLIYAASSLQNGVPSRFSGRGSGTDFTLTISSLQPEDFATYYCQQSYRTPLFTFGPGTKVDFK
IC50 [1]: 11 nM
IC50 [2]: 3.4 nM

B2: 4A2 (antibody, V domains shown)
VH: QVQLVQSGTEVKKPGASVKVSCKASGYTFTNYDINWVRQATGQGLEWMGWMHPNSGNTGYAQKFQGRVTLTRDTSISTAYMELSSLRSEDTAVYYCASSSGWYYFDYWGQGTLVTVSS
VL: DIVMTQSPDSLAVSLGERATINCKSSQSILHSSNNNNYLAWFQQKPGQPPKLLLYWASTRESGVPDRFSGSGSGTDFTLTISSLQPEDVAVYYCQQYYNTPVTFGPGTKVGIK
IC50 [1]: 54 nM
IC50 [2]: 11 nM

B3: 194C10 (antibody, V domains shown)
VH: QVQLQQWGAGLLKPSETLSLTCAVSGGSFRYYYWSWIRQPPGKGLEWFGEINHSGSTNYNPSLKSRVTISIDTSKNQFSLKLRSVTAADTAVYYCARDYGAFDIWGQGTMVTVSS
VL: EIVLTQSPGTLSLSPGERATLSCRASPSVNSGYLAWYQQKPGQTPRLLIFGASSRATGIPDRFSASGSGADFTLTISRLEPEDFAVYFCQQYESSPWTFGQGTKVEIK
IC50 [1]: 87 nM
IC50 [2]: 30 nM

B4: 5E5 (antibody, V domains shown)
VH: QVQLVESGGGVVQPGRSLRLSCAASGFTFSNYVMHWVRQAPGKGLEWVAVIWYDGSNKYYADSVKGRFTISRDNSKNTLYLQMNSLRAEDTAVYYCTREVYSSGWYDYGMDVWGQGTTVTVSS
VL: DIQMTQSPSSLSASVGDRVTITCRASQGIRNDLGWYQQKPGKAPKRLIYAASSLQSGVPSRFSGSGSGTEFTLTISSLQPEDFATYYCLQHYSYPRTFGQGTKVEVK
IC50 [1]: > 200 nM
IC50 [2]: 16 nM

B5: 176H4 (antibody, V domains shown)
VH: QVQLVESGGGVVQPGRSLRLSCAASGFTFSSYGMHWVRQAPGKGLEWVAIIWYDGSYKYYADSVKGRFTISRDNSKNTLYLQMSSLRAEDTAVYYCARDAHDFWSGYFAYWGQGALVTVSS
VL: DIVMTQTPLSLSVTPGQPASISCKSSQSLLHGDGKTYLYWYLQKPGQPPQLLIYEVSNRFSGVPDRFSGSGSGTDFTLKISRVEAEDVGIYYCMQSIQIPWTFGQGTRVEIK
IC50 [1]: 73 nM
IC50 [2]: 59 nM
